According to publication PMC7005872:

Target: TBC1D9 (UniProt Q6ZT07)
Experiment: co-IP of GFP-TBK1 and FLAG-TBC1D9
Settings: reference: GFP-TBK1 wild type; sites S172

**Q.** Which “binding against the reference” value does the source give for “TBK1 (from UniProt Q9UHD2) GFP-TBK1 S172A” here?
**A.** The value was “lost”.
